According to patent US20260184804A1:
pKd: −log10 of the molar value.

Tests used:
[1] = target: Apical domain construct of hTfR1 displayed on M13 phage (human); assay: Seqitope mutagenic scanning of the phage-displayed apical domain of hTfR1
[2] = target: His-tagged ectodomain of cynomolgus transferrin receptor 1 (cTfR1), amino acids R121-F760 (cynomolgus monkey); assay: SPR; binder captured on protein A, receptor as analyte 0.156-40 nM; no hTf
[3] = target: His-tagged ectodomain of human transferrin receptor 1 (hTfR1), amino acids R121-F760 (human) (UniProt P02786); assay: as above
[4] = target: His-tagged ectodomain of cynomolgus transferrin receptor 1 (cTfR1), amino acids R121-F760 (cynomolgus monkey); assay: SPR; binder captured on protein A, receptor as analyte 0.156-40 nM; with 250 nM hTf
[5] = target: His-tagged ectodomain of human transferrin receptor 1 (hTfR1), amino acids R121-F760 (human) (UniProt P02786); assay: as above
[6] = target: His-tagged ectodomain of human transferrin receptor 1 (hTfR1), amino acids R121-F760 (human) (UniProt P02786); assay: SPR (Biacore T200, single-cycle); hTfR1 captured on amine-coupled hTf, binder as analyte 6.25-100 nM

Chain of His-tagged ectodomain of human transferrin receptor 1 (hTfR1), amino acids R121-F760 (human) (P02786 other isoform, or with tags, fused parts or gaps limits assumed): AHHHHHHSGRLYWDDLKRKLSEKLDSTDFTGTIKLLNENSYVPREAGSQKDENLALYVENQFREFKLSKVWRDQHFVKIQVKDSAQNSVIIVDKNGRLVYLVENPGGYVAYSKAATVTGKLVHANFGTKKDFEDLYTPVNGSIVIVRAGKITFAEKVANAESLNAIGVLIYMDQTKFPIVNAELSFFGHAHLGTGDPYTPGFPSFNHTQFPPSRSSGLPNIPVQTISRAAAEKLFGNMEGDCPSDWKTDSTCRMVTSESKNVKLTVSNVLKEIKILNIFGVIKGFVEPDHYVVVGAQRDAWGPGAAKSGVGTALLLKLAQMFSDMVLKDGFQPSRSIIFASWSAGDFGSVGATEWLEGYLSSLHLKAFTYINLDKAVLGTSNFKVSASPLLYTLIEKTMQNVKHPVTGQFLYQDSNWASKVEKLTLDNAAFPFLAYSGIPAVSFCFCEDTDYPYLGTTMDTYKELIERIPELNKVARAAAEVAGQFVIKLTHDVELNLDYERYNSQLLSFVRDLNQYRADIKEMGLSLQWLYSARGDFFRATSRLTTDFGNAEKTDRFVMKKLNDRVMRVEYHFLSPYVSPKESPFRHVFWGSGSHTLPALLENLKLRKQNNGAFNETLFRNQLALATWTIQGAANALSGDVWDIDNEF
Chain of His-tagged ectodomain of cynomolgus transferrin receptor 1 (cTfR1), amino acids R121-F760 (cynomolgus monkey) (Q5RDH6 other isoform, or with tags, fused parts or gaps limits assumed): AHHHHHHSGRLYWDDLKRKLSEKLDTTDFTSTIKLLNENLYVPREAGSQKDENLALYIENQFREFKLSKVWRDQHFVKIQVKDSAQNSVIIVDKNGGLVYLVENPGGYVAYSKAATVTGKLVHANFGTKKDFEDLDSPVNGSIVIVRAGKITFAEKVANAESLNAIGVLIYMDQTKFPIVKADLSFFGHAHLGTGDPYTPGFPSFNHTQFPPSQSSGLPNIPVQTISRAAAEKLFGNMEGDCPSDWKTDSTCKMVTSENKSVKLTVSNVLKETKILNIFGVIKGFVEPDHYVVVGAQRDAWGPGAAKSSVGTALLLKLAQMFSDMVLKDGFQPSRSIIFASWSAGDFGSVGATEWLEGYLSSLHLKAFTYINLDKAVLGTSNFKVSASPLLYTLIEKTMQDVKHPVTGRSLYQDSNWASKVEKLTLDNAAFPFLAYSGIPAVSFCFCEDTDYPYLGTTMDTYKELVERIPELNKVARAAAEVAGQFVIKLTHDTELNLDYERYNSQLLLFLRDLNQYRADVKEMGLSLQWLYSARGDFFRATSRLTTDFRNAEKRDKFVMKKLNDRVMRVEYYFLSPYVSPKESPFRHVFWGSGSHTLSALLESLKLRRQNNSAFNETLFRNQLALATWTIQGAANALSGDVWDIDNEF

pKd [2]: 9.38
koff [2]: 8.85e-05 s⁻¹
kon [2]: 214000 M⁻¹ s⁻¹
pKd [3]: 10.00
koff [3]: 8.87e-05 s⁻¹
kon [3]: 882000 M⁻¹ s⁻¹
pKd [4]: 9.48
koff [4]: 8e-05 s⁻¹
kon [4]: 242000 M⁻¹ s⁻¹
pKd [5]: 10.08
koff [5]: 5.77e-05 s⁻¹
kon [5]: 692000 M⁻¹ s⁻¹
pKd [6]: 10.70
koff [6]: 5.63e-05 s⁻¹
kon [6]: 2.82e+06 M⁻¹ s⁻¹
Substance: Benchmark antibody 128.1 (BA1), full length human IgG1
Binding Ratio (BR) of residue D242 [1]: 3.56
Binding Ratio (BR) of residue E369 [1]: 6.88
Binding Ratio (BR) of residue G351 [1]: 3.27
Binding Ratio (BR) of residue L246 [1]: 3.36
Binding Ratio (BR) of residue P249 [1]: 2.64
Binding Ratio (BR) of residue R364 [1]: 2.64
Binding Ratio (BR) of residue V366 [1]: 4.15
